Measured values published in PMC9126943, “ADAMTS4-specific MR probe to assess aortic aneurysms in vivo using synthetic peptide libraries” (Nature Communications, 2022).
Several values for one entry are separate records, joined by “and”; a condition that tells them apart may be missing. Equal values may be shown once. Where a SMILES comes first, the peptide text is derived from it. Bridges are numbered along the chain shown (N, C = ends). The star is where a group is joined. DOTA = O=C(O)CN1CCN(CC(=O)O)CCN(CC(=O)*)CCN(CC(=O)O)CC1

Assays:
ADAMTS4 = molecular target: T1, ADAMTS4 (Homo sapiens, UniProt O75173); assay: Relaxivity at 3 Tesla, unbound and bound to ADAMTS4; format: physicochemical; conditions: 3 T, 1% BSA in PBS
T1 construct: purchased R&D systems 4307-AD-020
T1 sequence (O75173 213-837): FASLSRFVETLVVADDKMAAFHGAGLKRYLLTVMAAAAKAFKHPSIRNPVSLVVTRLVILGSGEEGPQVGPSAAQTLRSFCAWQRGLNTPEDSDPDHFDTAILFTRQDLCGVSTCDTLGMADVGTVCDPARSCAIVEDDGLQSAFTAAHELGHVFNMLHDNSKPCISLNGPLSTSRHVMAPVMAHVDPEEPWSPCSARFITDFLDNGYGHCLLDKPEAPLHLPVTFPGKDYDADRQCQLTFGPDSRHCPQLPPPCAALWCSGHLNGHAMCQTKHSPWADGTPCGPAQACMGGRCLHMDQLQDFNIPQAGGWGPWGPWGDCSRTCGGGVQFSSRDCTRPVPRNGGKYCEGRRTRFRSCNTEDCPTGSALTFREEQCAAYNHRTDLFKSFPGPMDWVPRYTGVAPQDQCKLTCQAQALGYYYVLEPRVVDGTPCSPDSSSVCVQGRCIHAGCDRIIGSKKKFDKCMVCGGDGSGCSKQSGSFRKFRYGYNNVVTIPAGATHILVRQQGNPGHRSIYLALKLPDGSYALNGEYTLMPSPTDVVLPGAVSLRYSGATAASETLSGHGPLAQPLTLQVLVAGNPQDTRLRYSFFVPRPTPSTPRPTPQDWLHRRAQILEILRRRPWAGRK
Procedure: One milliliter of a 1 µg/ml solution of the ADAMTS4-specific probe in 1% BSA in PBS buffer was measured in a reaction tube using a 3 T MRI scanner. 1% BSA in PBS buffer was used as a negative control. After each scan, 50 µl of a 0.2 µg/µl solution of ADAMTS4 (R&D systems, 4307-AD-020) was added to one reaction tube, while 50 µl of the 1% BSA in PBS buffer was added to the second reaction tube. Tubes were shaken and measured again. The following ADAMTS4 concentrations were measured: 0 µg, 10 µg, 20 µg, 30 µg, 40 µg, 50 µg, and 60 µg.

[1] = molecular target: T2, ADAMTS4 in the aneurysmal aortic wall of ApoE−/− mice (Mus musculus, UniProt Q8BNJ2); assay: In vivo MRI, longitudinal study (1 week after aneurysm induction); conditions: longitudinal group, 1 week after AngII, n = 12; one line per mouse
T2 construct: from tissue
T2 sequence (Q8BNJ2 209-833): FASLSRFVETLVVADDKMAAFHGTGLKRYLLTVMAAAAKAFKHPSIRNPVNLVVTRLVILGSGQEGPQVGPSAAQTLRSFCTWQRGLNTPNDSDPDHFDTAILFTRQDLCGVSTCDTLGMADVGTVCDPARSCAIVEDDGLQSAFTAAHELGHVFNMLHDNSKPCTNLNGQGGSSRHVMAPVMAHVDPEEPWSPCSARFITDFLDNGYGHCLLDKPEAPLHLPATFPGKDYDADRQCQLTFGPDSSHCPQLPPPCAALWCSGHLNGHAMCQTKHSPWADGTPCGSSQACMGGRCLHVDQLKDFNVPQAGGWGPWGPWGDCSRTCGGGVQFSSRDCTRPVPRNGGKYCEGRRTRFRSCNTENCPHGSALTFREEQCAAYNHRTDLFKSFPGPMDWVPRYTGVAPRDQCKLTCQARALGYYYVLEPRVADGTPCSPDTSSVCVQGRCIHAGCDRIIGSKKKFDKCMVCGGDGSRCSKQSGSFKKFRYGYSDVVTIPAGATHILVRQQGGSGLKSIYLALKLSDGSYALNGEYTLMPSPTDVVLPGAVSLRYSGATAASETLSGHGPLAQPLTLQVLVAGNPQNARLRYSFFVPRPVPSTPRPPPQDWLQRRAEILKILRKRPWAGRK
Procedure: The longitudinal study includes an MR imaging session 1 week after aneurysm induction (n = 12) with the administration of the ADAMTS4-specific probe. Animals were then followed up for 4 weeks to evaluate the potential of the probes for the prediction of aneurysm progression. After 4 weeks, mice were sacrificed, and aortas excised.
MR imaging was performed using a clinical 3 T Siemens system (Biograph, Siemens Healthcare Solutions, Erlangen, Germany). The system was equipped with a 4-channel receive-coil array for mouse body applications (Mouse Heart Array, P-H04LE-030, Version 1, Rapid Biomedical, Germany). Following anesthesia injection, the animals were positioned in a prone position, and body temperature (37 °C) was monitored using an MR-compatible heating system (Model 1025, SA Instruments Inc, Stony Brook, NY) to avoid rapid cooling. […]
Analysis of resulting MR images was performed using OsiriX (version 7.1, OsiriX Foundation, Bernex, Switzerland). […] In order to assess the signal intensities, regions of interest (ROIs) were measured as areas of signal enhancement, which were co-localized with areas of aneurysmal-aortic tissue. For these areas, the CNR was calculated using the following formula: CNR = (Combined vessel-wall and aneurysmal-aortic-tissue-signal − blood-signal)/standard-deviation-signal (noise). […]

[2] = Solubility (statement, no method); format: physicochemical; conditions: statement in the discussion

SMILES: N=C(N)NCCC[C@@H]1NC(=O)[C@H](CCCNC(=N)N)NC(=O)[C@H](CO)NC(=O)[C@@H](N)CSSC[C@@H](C(=O)N[C@@H](CO)C(=O)NCC(=O)NCC(=O)N[C@@H](CO)C(=O)NCC(=O)NCC(=O)N[C@@H](CCCCNC(=O)CN2CCN(CC(=O)O)CCN(CC(=O)O)CCN(CC(=O)O)CC2)C(=O)NCC(N)=O)NC(=O)CNC1=O (Gd complex, metal not drawn) [ADAMTS4-specific probe] (H-CSRRGCSGGSGGK(DOTA)G-NH2; disulfide 1-6)
- longitudinal relaxivity, unbound probe (ADAMTS4): 3.4 ± 0.19 mM⁻¹ s⁻¹
- longitudinal relaxivity, bound probe (ADAMTS4; ADAMTS4 added): 6.13 ± 0.73 mM⁻¹ s⁻¹
- CNR post administration, individual animals [1]: 10.17 and 7.35 and 11.97 and 12.63 and 7.15 and 7.46 and 7.27 and 8.85 and 11.26 and 15.46 and 7.57 and 11.23
- solubility [2]: high solubility
